Source: patent CN101228187A (UNIV RAMOT, dated 2008)

Biological target: MAP-PrP, multiple antigen peptide presenting amino acids 144-153 of human prion protein (human)
Test: ELISA (Fig. 9)

B1: F2 scFv (scFv)
scFv: VQLLESGGGLVQPGGSLRLSCAASGFTFSGYWMHWVRQAPGKGLEWVSEISGSGDSTHYGDSVKGRFTISRDNSKNTLYLQMNSLRAEDTAVYYCARGRNGSLDYWGQGTLVTVSSGSAGGGGSGGGGSGGGGSDIVLTQPPSASGTPGQRVTISCSGTSSNIGADYDVHWYQQLPGKAPKLLIYDNNKRPSGVSDRFSGSKSGTSASLAISGLRSEDEADYYCAAWDSSLSSVVFGGGTQLTV
notes: also called TAR1; scFv F2
B1: no binding.
